Measurements taken from a protein production outcome set (Wang et al. 2014).

Experiment: label from the status in PepcDB records

With “MGFYQGPDNRKITGGLKGKHRDKRKYEIGNPPTFTTLSAEDIRIKDRTLGGNFKVRLKYTTTANVLDPATNTAKKVKILEILETPANKELARRGIIIRGAKIRTEAGLAVVTSRPGQDGVINAVLLKNESQRSLEHHHHHH” the protein production was “failed”.

For “MTTFSVIMATYNRGRHILPSIQSVLRQTCRDFELLVVGDCCTDDTADVVRALASPQIRWLNLPERGGSQAFPNNAGIEMSRGRYIAYLGHDDIWAPDHLQALADLFGHTQQPDFAVSGAIFHGPRASNFRWVTGIFDESDTALKHFFPPSSFGHRRDVADRIGKWRHPKEITAPVDADFLLRAARFGMNFVSTQRITVQKFAAGHRYLSYTGHTSDEQERMVRRMARPGYDGYLASELAKAKAAGGYMVVVHPDYERYENGQVSTQNAMAKGVVRPDLRNLRQREVIKQDNSPKALDWVPHQSGGDWVLWAGRNPRPKLLVPFKYAGKARIRLDIRHPLREALTKLKLSVNGQPAVASLGKVRQEGNLWNAQATFETALRRDDHTILELHLTRLQRPAARNGIGVGDMEVTPLGWRSIVAKGTRLLAKFRPAC”, the protein production was “failed”.

In the case of “MGHHHHHHSHMAFVTRQFMRSVSSSSTASASAKKIIVKHVTVIGGGLMGAGIAQVAAATGHTVVLVDQTEDILAKSKKGIEESLRKVAKKKFAENPKAGDEFVEKTLSTIATSTDAASVVHSTDLVVEAIVENLKVKNELFKRLDKFAAEHTIFASNTSSLQITSIANATTRQDRFAGLHFFNPVPVMKLVEVIKTPMTSQKTFESLVDFSKALGKHPVSCKDTPGFIVNRLLVPYLMEAIRLYERGDASKEDIDTAMKLGAGYPMGPFELLDYVGLDTTKFIVDGWHEMDAENPLHQPSPSLNKLVAENKFGKKTGEGFYKYK”, the protein production is reported as “not failed”.

For “MRILTLGLDGSGEFAFQSHAHTDHFANGRLIFATRPTIFLSHLRNSRYYIPVDFGKKFYIGDFKAKLYPSGHILGSSGIKIWLDEGTLYYTGDVKVKKLRTVERAKLPKADFLIIESTFGLPRFTFPDPRESEKVIIGIVEDLIDRGKVPTFMANPYGKAQEIIKILNVHGYSVSVDREIAKVSKFYMKFGVRLKFEKEGEVKVSSSKGISVSGFGRIKLSNHADFWELLEIVERVNPEKVFTVYGHAEAFAKILNGLGYEAKSIRRNQKLEVWLEHHHHHH”, the protein production was “failed”.

In the case of “VEASFCLGDNWQFLYVNDATCRMTEYSREQLLSMNLQDIDVDFALHDWEEIRQKNNYTFKTRYRSQSGRIFLVEMSLTFLEDQERRFSCVFVREKS”, the protein production is reported as “failed”.

In the case of “MDIGRKRDVFLIILPALCAFALALIPTFRYTVPLTWDVYYHIHNATLYMGRGIVFWDPLTSAPHGRPLYYPPLFHIMLLFLSKITGLGFFTVSRFMQPVFAFLILLSFSYVSGKLYGPLAGFLTGMFLFSSLFFMRMMFPIPESLAMISIPLFVYGYYRSMECCSRLYPVLTGLLLGLMLMTHILSASIILAVVTLSTIVLYIGKYDIRPWNLLIILGSGLLLASVWYAPLIVKYGFVFRSPATSSLPLEGYITHLGVLLTILSLAGIVHAAGRREKKDVIMAVWTVFVLALTAAYLLGLKVLSDRILYFALFPMATLSANLFNSIRINNGKWSFYAIILLISLYCIYDGYSLASSIKLEVSDSELDIAEWFRYNGDHATVVVSDYHIQPAIVAVSGQPVSAGGYAPGTIRSINVEKYISSFNYTKHDIMRDRVGYIILDNEERTPPYSRLVYRNRDFSVYRVNV”, the protein production is reported as “failed”.

For “MTGGLLVTGGSGAIGGALCRIAARQHPVWVGYGAGAGRARALAAEITQAGGRAEPLALPLQDPAALETALAALPEPPASLALCAWPAPFVAPFGRQGEDLALQAAALAGCHALIATAWRLWWRRAGGGHVLAVLSAASEPPVARHMAAYVAQKAALRALLAAAAAELGPAGLRVSVVAPGFVETPMLGAFDPRLLERARADAGGRFLSPERVAQALVAALDAPPPAGTVQDIHLAEEVESDEKQTA”, the protein production was “failed”.

For “MHLLVVEDDDIVRMLMVEVLDDLGYKVIEAEDATAALRVLEDPSQALALMMTDVGLPDMRGEELAGKARELRPLLPVLFASGYADSFNVPEGMHLIGKPFSIDQLRDTVVGILGTP”, the protein production was “failed”.

In the case of “MATVAECNHSVLDLVTKMATMLVADEMKPKKQTAVLVAKKRSKIYESLLHSETMSSQDKLEMLHQVTSEVAKNPDRMDMLLRFQNLLEGQDKEESEITQDQDEENQSEVVIKRIKAGPLQLIETIEIVEEALHPKAFPDINQMNRALKPLQLQPYSDILTTSNLNINFPPEKLIPKIIPSTVIRMGLSESITRMRNEMEKPMHPPPRLPVLAKKVVAPLEDERPFVAQPGPEKHFVSDKLLTNELKILRNKNLVLNYLDEATLIDHLKKAACGIESLTFPISSADKLELRVRPNTTLPTMLPEVLADFANHFIRAGCAFLRLSSRTKWNNIAEMRLERPLNRAMRETIMDYLSTTRQFLLSLQADSLFQLLNNTSTAIQLLCQLDRMFENEPRLNLNTGITGSFLLSSIWLAIDTCGNKDFLHLLIYFLRCISRNYFIQLQRWIYHGELDESVNEIFISRCLNTSPSFTNQCSKEFFDKSYQVDNEAIPEFLVGCEEEILQCGKYNLVLRAYNAQHPVFDVQYPDIVVCLTEQQLKNMRRNLADKYAIIYKRFGWCSMQSIFEDRMATKRVFANLMVKRTQAHLDAWAQKQRELQIKANAQKKLQNDQLNAEQERIQQNHLEKRRQDIVNELAFQRECERMEDKLLEREKQELQKKVVQLAAVLSSSPDRSTVSDLSFASCIEEPDCLAESSSDKDDANTENSEDEATKQLDKTLNVPLEQPEAEYQADVDVDQPRGKECSLPNVFQYQRSHSDVINSNEHPTTQAEFNRNRQHGLSSDQFQQCHATVHLQESDLLKTAASTSSGLHAEIPQDINANLNCPDTKELTELQRNRKRNEHHDGFFSFNSTEDEHTHRLRSLLNSNTERGRNRLRVMETEFGLGYKNTDIETKATPCLPLEIDKLHVEIPLAVLTPMSTTSDVDFGDPSPRELPEIADTANNNNVSGSIESLSPELPKPVLAIAKPTSLLPKLDFGMKDERETEQDRDKVSTLPEACNPFMARRCLQLSVMAPLNAYYGLLRNEVLRIFQEQRIYEHFRKLRNYFFLVDGQFGATLTNEILGRIRAGVGPRSLSQKGILDTILTNALAACSADETTVSENLTLNCTTIPDTLNFLSVEATSMLKLNCKIDWPLNMVISSETISKYGQIFGYLLKLRHVSFVLDGTYEYLQQMGKLLGPELRTCTHFRHMQMMRHKMSHFMTSFQTHLVAKALLSTWKSFKEELCTADSIEALYKQHVAYLKRVAFLALLNRRSAKVKETIDNILVIILRFCKVIQSQSFIVDQDNYFVHPRFKRLQQEEAEFEKFLQYLIYLGNKAAASGYQEEIGDLICIINFNHYYKVSGNHTGSSMEDKKC”, the protein production is reported as “failed”.

In the case of “MTIYAAGLPAFLSYFSIGLVCFAIFSTIYTRLTPHEEVELIKAGNISAVVAFLGALIGFSLPLASAAAHSVSLPDYVIWAAIGLLVQVLAFYIAKLTMTDLHLKITEGNVAAGLWSGGIAVVIGTLNAACMAY”, the protein production is reported as “failed”.

With “PGMLYEFCLKPDGTMTFPYVSSGCLELIECSPQELQDDASLTFASTYPEDIIGLQEAIANSAKTLQNFEHEWRIITSSGQLKWVKGASRPERKPGGEITWYGYLLDVSEQQAALRERKQADQQLQQQAQLLQSIWEGVD” the protein production was “failed”.

With “MSDHFSIIKFDIGNSTMNAERKFLFACLIFALAIYAIHAFGLFDLLTDLPHLQTLIRQSGLFGYSLYILLFIIATLFLLPGSILVIAGGIVFGPFLGTLLSLIAATLASSCSFLLARWMGRDLLLKYVGHSHTFQAIEKGIARNGIDFLILTRLIPLFPYNIQNYAYGLTTIAFWPYTLISALTTLPGIVIYTVMASDLANEGITLRFILQLCLAGLALFILVQLAKLYARHKHVDLSASRRNPLTHPKNEG” the protein production was “failed”.

In the case of “MSAVTYTFLGPQGTFTEAALMQVPGAADATRIPCTNVNTALERVRAGEADAAMVPIENSVEGGVTATLDAIATGQELRIIREALVPITFVLVARPGVELSDIKRISTHGHAWAQCRLWVDEHLPNADYVPGSSTAASAMGLLEDDAPYEAAICAPLIAAEQPGLNVLAEDIGDNPDAVTRFILVSRPGALPERTGADKTTVVVPLPEDHPGALMEILDQFASRGVNLSRIESRPTGQYLGHYFFSIDADGHATDSRVADALAGLHRISPATRFLGSYARADKQPAVVAPHTSDAAFASAHAWVDSILKGS”, the protein production is reported as “not failed”.

With “MTRAPPRRCTSPMTPTAPSPLVWRDDGLPQSSLYGDVYFSSVDGLAETRAVFLAGCGLPERFAERRDFVVGELGFGSGLNIAALLDLWRREKPPGGRLHIFSIEAHPLSRDEAARILAHWPELGEAAQVLLDHWPGRARGFHRVDLPGFDAVLDLAVMDVVEALEAWDGLADAWFLDGFSPALNPAMWRDEVLAAVGARSAPGARAATFTVAGAVRRGLSAAGFEIAKRPGFGRKRERLEAWRPGVRPVAQRPETLAIIGGGIAGAALARAARAAGLEVTVIDDADAVAASGNPAALVTPALDAGGGPRAALYAQALSRAVTLYEAQPDAVLAREVLQLAAGERDPARFATVADQDLFEPGDMRTLEAEDTRARLETPTPALAMAGARVIAPAEVTAAWAGPVVRRRVAKAERDGEGWRLLDAAGEIIARADRLALAGGAAGADLLAEAPLRPVRGQASWTRGHGAPATAFGGYAIPTREGLLFGATHDRDDTQTNVRSEDHARNLATLAKGLPALAARLAGSTFEGRAAIRATTPDRLPLADLREDGVIVLTGLGSRGFCLAPLLAEHLVARLLDVPSPLPRQLSHLLKLTRFDSPVTRSRL” the protein production was “failed”.

With “VNEIVVNPNATLDWQLALRQAAGKTDLARDMLQMLLDFLPEVRNKVEEQLVGENPEGLVDLIHKLHGSCGYSGVPRMKNLCQLIEQQLRSGTKEEDLEPELLELLDEMDNVAREASKILG” the protein production was “not failed”.

In the case of “MLLSKKSEYKTLSTVEHPQYIVFCDFDETYFPHTIDEQKQQDIYELEDYLEQKSKDGELIIGWVTGSSIESILDKMGRGKFRYFPHFIASDLGTEITYFSEHNFGQQDNKWNSRINEGFSKEKVEKLVKQLHENHNILLNPQTQLGKSRYKHNFYYQEQDEINDKKNLLAIEKICEEYGVSVNINRCNPLAGDPEDSYDVDFIPIGTGKNEIVTFMLEKYNLNTERAIAFGDSGNDVRMLQTVGNGYLLKNATQEAKNLHNLITDSEYSKGITNTLKKLIGFMRRK”, the protein production is reported as “not failed”.

In the case of “MATGLGFFKLSFLLSLLSGGSDLLGPDAESGVAQIGKFPPSCNRIECPSYELVHSGNGYEIRRYNNTVWVSTEPIPDISLVDATRTAFFQLFAYIQGKNEYHQKIEMTAPVISQVSPSDGPFCESSFTVSFYVPKKNQPDPAPSENLHIQKWNSRYVAVRQFSGFVSDDSIGEQAAALDSSLKGTAWANAIAKSKEDGGVGSDSAYTVAQYNSPFEFSGRVNEIWLPFELDV”, the protein production is reported as “failed”.

For “MKTLEKVNYKGFIWPLAVGIVLWLITPWRPGGLSVQAWEMFAIFVATIVGCITKPLPIGGTTLLGMVVTVLVGLAPVKDVVNSKGVVIQTGILSSFGNSAAWLIAMAFIMAHGISKTGLGNRVAYVMIEKFGKRSIGIGYAITGLELMMGALIPSNSARTGGVTWPVVESISKSYDSKPNDPSRKKIGAYLDFMAFHANILSTALFITGAAPNLVAQQMAAQKGYQMSWVSWFWAALVPVLVATVIIPLVIYKMYPPEVKETPNAKNWADDKLKEMGPISKPEKIMATVFCLAILLWVLSGFFKIPQLDSAFVAFLAVTLLLITGVLSMEDALHETGAWNILIWLSILIFMAGKLISYGFIAWFAKFIQSEVHGINWGLVLVVLILLMFYTHYFFASGTAHMTALYLPFLTVATAMGAPLGLSAMLLAFTGVINASTTHYANGPASILATTGYVKQSEWWKMNFILGLIYMVIFGIVGTIWMKIIGIW”, the protein production was “failed”.

For “MRNKDLEPHSFELWLNAAKTNLDKYEMALIITATLGLRRGEVMGLRNESIKISHDQINDADVAQISIDMQRNTNELNGGPLKTKSSYRTIWAFGKTVDHLKYAMITADNLRQRNNIQAEKHWLWLNNDGNPLHPTHLNRLMRRVSNRSGVEVYPHLLRHYFATQAIAANKPQIDVMHYLGHKNLQMTADYTRSTKAASLNVFNSIDKFLLEHHHHHH”, the protein production was “failed”.

For “MDRTHERVLQAMAENLGEGLPRAIPLLAEKAPGLLLEHGRSWTYAMPEKGALDEKTRTLILLGIALATGSEACVKAMAHRAKRLGLSKEALLETLKIARQAQANAVLGHAAPLLEVL”, the protein production was “not failed”.
